# Results as given in patent publication US20240247063A1 (Janssen / Centocor, published 2024).
# Positions count from the first letter of the chain named. In names and notes the source's numbering stands. Several values for one entry are separate records, joined by “and”; a condition that tells them apart may be missing. Identical values can stand only once.
# B1: VB11 (anti-Vβ17/anti-CD123) bispecific antibody (bispecific antibody, human IgG4 S228P, kappa, F234A L235A)
# heavy 1: QVQLQESGPGLVKPSETLSLTCTVSGYSITSGYFWNWIRQPPGKGLEWIGYISYDGSNNYNPSLKSRVTISRDTSKNQFSLKLSSVTAADTAVYYCASPSPGTGYAVDYWGQGTLVTVSSASTKGPSVFPLAPCSRSTSESTAALGCLVKDYFPEPVTVSWNSGALTSGVHTFPAVLQSSGLYSLSSVVTVPSSSLGTKTYTCNVDHKPSNTKVDKRVESKYGPPCPPCPAPEAAGGPSVFLFPPKPKDTLMISRTPEVTCVVVDVSQEDPEVQFNWYVDGVEVHNAKTKPREEQFNSTYRVVSVLTVLHQDWLNGKEYKCKVSNKGLPSSIEKTISKAKGQPREPQVYTLPPSQEEMTKNQVSLSCAVKGFYPSDIAVEWESNGQPENNYKTTPPVLDSDGSFFLVSRLTVDKSRWQEGNVFSCSVMHEALHNRFTQKSLSLSLGK
# light 1: DIQMTQSPSSLSASVGDRVTITCRSSQSLVHSNGNTYLHWYQQKPGKAPKFLIYKVSNRFSGVPSRFSGSGSGTDFTLTISSLQPEDFATYYCSQSTHVPFTFGQGTKLEIKRTVAAPSVFIFPPSDEQLKSGTASVVCLLNNFYPREAKVQWKVDNALQSGNSQESVTEQDSKDSTYSLSSTLTLSKADYEKHKVYACEVTHQGLSSPVTKSFNRGEC
# heavy 2: EVQLVQSGAEVKKPGESLKISCKGSGYSFTSYWISWVRQMPGKGLEWMGIIDPSDSDTRYSPSFQGQVTISADKSISTAYLQWSSLKASDTAMYYCARGDGSTDLDYWGQGTLVTVSSASTKGPSVFPLAPCSRSTSESTAALGCLVKDYFPEPVTVSWNSGALTSGVHTFPAVLQSSGLYSLSSVVTVPSSSLGTKTYTCNVDHKPSNTKVDKRVESKYGPPCPPCPAPEAAGGPSVFLFPPKPKDTLMISRTPEVTCVVVDVSQEDPEVQFNWYVDGVEVHNAKTKPREEQFNSTYRVVSVLTVLHQDWLNGKEYKCKVSNKGLPSSIEKTISKAKGQPREPQVYTLPPSQEEMTKNQVSLWCLVKGFYPSDIAVEWESNGQPENNYKTTPPVLDSDGSFFLYSRLTVDKSRWQEGNVFSCSVMHEALHNHYTQKSLSLSLGK
# light 2: EIVLTQSPGTLSLSPGERATLSCRASQSVSSSYLAWYQQKPGQAPRLLIYGASSRATGIPDRFSGSGSGTDFTLTISRLEPEDFAVYYCQQDYGFPWTFGQGTKVEIKRTVAAPSVFIFPPSDEQLKSGTASVVCLLNNFYPREAKVQWKVDNALQSGNSQESVTEQDSKDSTYSLSSTLTLSKADYEKHKVYACEVTHQGLSSPVTKSFNRGEC
# B2: VB13 (Vβ17×Null) bispecific antibody (bispecific antibody, human IgG4 S228P, kappa, F234A L235A)
# heavy 1: B1 heavy 1
# light 1: B1 light 1
# heavy 2: not shown
# light 2: not shown
# notes: Knob-into-hole human IgG4; also called Vβ17XNULL; V 17 null control bispecific
# B3: VB17B25 (PSMB410 × B17B21-N33S) (bispecific antibody, human IgG1, kappa, L234A L235A)
# chain: not shown
# heavy: QVQLQESGPGLVKPSETLSLTCTVSGYSITSGYFWNWIRQPPGKGLEWIGYISYDGSNNYNPSLKSRVTISRDTSKNQFSLKLSSVTAADTAVYYCASPSPGTGYAVDYWGQGTLVTVSSASTKGPSVFPLAPSSKSTSGGTAALGCLVKDYFPEPVTVSWNSGALTSGVHTFPAVLQSSGLYSLSSVVTVPSSSLGTQTYICNVNHKPSNTKVDKKVEPKSCDKTHTCPPCPAPEAAGGPSVFLFPPKPKDTLMISRTPEVTCVVVSVSHEDPEVKFNWYVDGVEVHNAKTKPREEQYNSTYRVVSVLTVLHQDWLNGKEYKCKVSNKALPAPIEKTISKAKGQPREPQVYTLPPSREEMTKNQVSLSCAVKGFYPSDIAVEWESNGQPENNYKTTPPVLDSDGSFFLVSKLTVDKSRWQQGNVFSCSVMHEALHNRFTQKSLSLSPGK
# light: B1 light 1 with N33S
# notes: First chain is the PSMB410 scFv-Fc; also called Vβ17B25; Vβ17×PSMA
# Key:
# [1] = molecular target: T1, T Cell Receptor Beta Variable 17 (Vβ17) on the surface of human T cells (human); assay: flow cytometry, FLU MP 58-stimulated enriched CD8+ T cells, anti-human IgG4 Fc-PE
# T1 construct: whole, on cells; Polyclonal Vβ17+ T cells of donors; also called V 17; Vb17
# Procedure: Mouse anti-human IgG4 Fc-PE secondary antibody was used to detect the bispecific antibody.
# Bispecific antibody binding affinities to CD8+ T cell were determined by flow cytometry.
# [2] = molecular target: T1, T Cell Receptor Beta Variable 17 (Vβ17) …; assay: flow cytometry, binding to CD8+ T cells isolated from PBMCs (only the Vβ17 non-depleted curve rises)
# [3] = molecular target: T1, T Cell Receptor Beta Variable 17 (Vβ17) …; assay: flow cytometry, binding to CD8+ T cells isolated from PBMCs, donor HPU 08694
# [4] = molecular target: T1, T Cell Receptor Beta Variable 17 (Vβ17) …; assay: flow cytometry, binding to CD8+ T cells isolated from PBMCs, donor D203517
# [5] = molecular target: T1, T Cell Receptor Beta Variable 17 (Vβ17) …; assay: flow cytometry, CD8+ T cells from Vβ17 non-depleted PBMCs
# [6] = molecular target: T1, T Cell Receptor Beta Variable 17 (Vβ17) …; assay: flow cytometry, binding to CD8+ T cells isolated from PBMCs, donor HPU 09381
# [7] = molecular target: T2, CD123 on Kasumi-3 AML cells (human, UniProt P26951 19-378); assay: flow cytometry, binding to Kasumi3 AML cells
# T2 construct: whole, on cells; also called interleukin-3 receptor; IL-3R
# [8] = molecular target: T1, T Cell Receptor Beta Variable 17 (Vβ17) …; assay: flow cytometry, % binding, pan T cells of donor NHV21-07171
# Procedure: (§1) Binding assay was done with isolated Pan T cells from 2 donors. Pan T cells were isolated from Whole PBMCs. 1 μL Live dead (1:1000 diluted) and Fc Block 2 μL/well was added. 100 μL of the cell suspension was seeded in 96 well V bottom plate at 100,000 cell per well and incubated for 10 minutes at 4° C. The plate was washed by adding 190 μL FACS buffer spun at 1500 rpm for 5 minutes. 100 μL diluted test antibodies was added to the plate and the plate was incubated at 37° C. 5% CO₂ for 45 minutes. Wash step was repeated. 100 μL diluted Secondary antibody (0.5 μL/well in 100 μL FACS buffer) was added and the plate was incubated at 4° C. for 45 minutes. Wash step was repeated. 100 μL cytofix was added to the pellet and the plate was incubated at 4° C. for 10 minutes. Wash step was repeated. 100 μL FACS buffer was added to the pellet and sample was analyzed by Flow cytometry. Cells were gated on FSC/SSC, followed by live cell gating.
# [9] = molecular target: T1, T Cell Receptor Beta Variable 17 (Vβ17) …; assay: flow cytometry, MFI, pan T cells of donor NHV21-07174
# Procedure: as §1
# [10] = molecular target: T1, T Cell Receptor Beta Variable 17 (Vβ17) …; assay: flow cytometry, % binding, pan T cells of donor NHV21-07174
# Procedure: as §1
# [11] = molecular target: T3, prostate-specific membrane antigen (PSMA) on C4-2B cells (human, UniProt Q04609 1-750); assay: flow cytometry on C4-2B cells, APC secondary antibody
# T3 construct: whole, on cells
# Procedure: The C4-2B cells were centrifuged and re-suspended in DPBS and counted. 4 million cells were re-suspended in 8 mL of DPBS and 8 μL of Violet Fluorescent Dye was added and incubated for 15 min. in 4° C. Eight milliliters FACS buffer was added to neutralize mix and 200 μL per well was seeded. The plate was centrifuged and re-suspended in 100 μL of antibody dilutions accordingly and incubated for 30 min. in incubator. 10 μg/mL conc. of each antibodies were prepared in 200 μL stock and further diluted to 8 points by adding 60 μL to 120 μL of FACS serially buffer to get 3-fold dilution. 100 μL of FACS buffer were added to each well, centrifuged, re-suspended in 100 μL FACS buffer with 0.5 μL/well con. Secondary antibody tagged with APC & incubated for 30 min. 4° C. Next, 100 μL of FACS buffer was added to each well, centrifuged, re-suspended in 100 μL BD Cytofix & incubated for 10 min. 4° C. 100 μL of FACS buffer were added to each well, centrifuged, re-suspended in 100 μL FACS buffer, stored at 4° C. Data was acquired in Flow cytometer and the data was analyzed.
# [12] = molecular target: T1, T Cell Receptor Beta Variable 17 (Vβ17) …; assay: flow cytometry, MFI, pan T cells of donor NHV21-07171
# Procedure: as §1
# T1 sequence (A0A075B6N1 22-114): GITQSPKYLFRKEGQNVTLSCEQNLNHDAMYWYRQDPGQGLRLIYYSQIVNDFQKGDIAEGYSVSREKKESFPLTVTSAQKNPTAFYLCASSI
# T3 sequence (Q04609 whole entry): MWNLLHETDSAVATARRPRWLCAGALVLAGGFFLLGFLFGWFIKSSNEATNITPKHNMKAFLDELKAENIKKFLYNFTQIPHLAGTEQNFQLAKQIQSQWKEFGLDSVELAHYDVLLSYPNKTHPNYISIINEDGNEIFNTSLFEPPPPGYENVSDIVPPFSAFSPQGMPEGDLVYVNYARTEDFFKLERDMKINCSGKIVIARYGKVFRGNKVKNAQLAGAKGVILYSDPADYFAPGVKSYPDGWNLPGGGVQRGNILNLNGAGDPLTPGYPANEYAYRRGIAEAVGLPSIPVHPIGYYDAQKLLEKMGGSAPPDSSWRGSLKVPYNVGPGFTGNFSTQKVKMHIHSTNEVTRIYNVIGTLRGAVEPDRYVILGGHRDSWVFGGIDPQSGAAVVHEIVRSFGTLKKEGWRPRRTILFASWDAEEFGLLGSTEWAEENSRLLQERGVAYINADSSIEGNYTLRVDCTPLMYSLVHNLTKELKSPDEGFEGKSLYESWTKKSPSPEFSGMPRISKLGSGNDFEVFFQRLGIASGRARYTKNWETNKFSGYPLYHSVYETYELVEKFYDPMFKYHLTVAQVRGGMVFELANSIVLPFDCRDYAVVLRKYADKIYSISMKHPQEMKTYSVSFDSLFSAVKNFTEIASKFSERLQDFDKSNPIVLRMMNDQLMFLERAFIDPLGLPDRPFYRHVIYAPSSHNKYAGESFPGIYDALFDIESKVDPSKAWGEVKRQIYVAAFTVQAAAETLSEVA
# T2 sequence (P26951 19-378): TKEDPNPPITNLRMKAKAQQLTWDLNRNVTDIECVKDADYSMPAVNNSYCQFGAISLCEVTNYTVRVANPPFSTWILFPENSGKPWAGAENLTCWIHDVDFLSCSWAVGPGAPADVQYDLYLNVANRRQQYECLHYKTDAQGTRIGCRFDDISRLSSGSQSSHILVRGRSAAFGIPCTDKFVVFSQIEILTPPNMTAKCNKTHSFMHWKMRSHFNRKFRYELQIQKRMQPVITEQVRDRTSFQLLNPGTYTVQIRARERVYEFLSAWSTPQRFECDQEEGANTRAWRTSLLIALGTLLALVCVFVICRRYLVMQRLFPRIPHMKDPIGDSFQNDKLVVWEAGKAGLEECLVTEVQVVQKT
binder,measurement,setting,value
B1,EC50,[1],1.35 µg/mL and 9 nM
same,EC50,[2],12.2 nM
same,EC50,[3],1.9 nM
same,EC50 (read off the curve),[3],~0.2 µg/mL
same,EC50,[4],1.26 nM
same,EC50 (read off the curve),[4],~0.2 µg/mL
same,EC50 (read off the curve),[5],~0.2 µg/mL
same,EC50,[6],0.8 nM
same,EC50 (read off the curve),[6],~0.1 µg/mL
B2,binding result,[7],no binding (tested: about 20 µg/mL)
same,EC50,[1],2.8 µg/mL and 18.7 nM
same,EC50,[2],12.6 nM
same,EC50,[3],1.5 nM
same,EC50 (read off the curve),[3],~0.3 µg/mL
same,EC50,[4],1.4 nM
same,EC50 (read off the curve),[4],~0.2 µg/mL
same,EC50 (read off the curve),[5],~0.3 µg/mL
same,EC50,[6],1.5 nM
same,EC50 (read off the curve),[6],~0.2 µg/mL
B3,EC50,[8],0.3 µg/mL
same,EC50,[9],~3 µg/mL
same,EC50,[10],0.2 µg/mL
same,EC50,[11],2.1 µg/mL
same,EC50,[12],1.5 µg/mL
